Assays:
[1] = target: SV40 LT 131-627 cL557A (Simian Virus 40); assay: SEC; Superdex 200 10/300 GL; 250 μg LT (0.8 μg/μL) incubated with 4 mM ATP and 1 mM MgCl2; 25 mM Tris pH 8.0, 250 mM NaCl, 0.5 mM TCEP; percent hexamer from peak areas; monomer to hexamer
[2] = target: SV40 LT 131-627 cS430T (Simian Virus 40); assay: SEC; Superdex 200 10/300 GL; 250 μg LT (0.8 μg/μL) incubated with 4 mM UTP and 1 mM MgCl2; 25 mM Tris pH 8.0, 250 mM NaCl, 0.5 mM TCEP; percent hexamer from peak areas; monomer to hexamer
[3] = target: SV40 LT 131-627 cS430T (Simian Virus 40); assay: SEC; Superdex 200 10/300 GL; 250 μg LT (0.8 μg/μL) incubated with 4 mM ATP and 1 mM MgCl2; 25 mM Tris pH 8.0, 250 mM NaCl, 0.5 mM TCEP; percent hexamer from peak areas; monomer to hexamer
[4] = target: SV40 LT 131-627 cW393A (Simian Virus 40); assay: as above
[5] = target: SV40 LT 131-627 tK419A (Simian Virus 40); assay: SEC; Superdex 200 10/300 GL; 250 μg LT (0.8 μg/μL) incubated with 4 mM TTP and 1 mM MgCl2; 25 mM Tris pH 8.0, 250 mM NaCl, 0.5 mM TCEP; percent hexamer from peak areas; monomer to hexamer
[6] = target: SV40 LT 131-627 tK419A (Simian Virus 40); assay: SEC; Superdex 200 10/300 GL; 250 μg LT (0.8 μg/μL) incubated with 4 mM ATP and 1 mM MgCl2; 25 mM Tris pH 8.0, 250 mM NaCl, 0.5 mM TCEP; percent hexamer from peak areas; monomer to hexamer
[7] = target: SV40 Large Tumor Antigen (LT) 131-627, wild type (Simian Virus 40); assay: SEC; Superdex 200 10/300 GL; 250 μg LT (0.8 μg/μL) incubated with 4 mM UTP and 1 mM MgCl2; 25 mM Tris pH 8.0, 250 mM NaCl, 0.5 mM TCEP; percent hexamer from peak areas; monomer to hexamer
[8] = target: SV40 Large Tumor Antigen (LT) 131-627, wild type (Simian Virus 40); assay: SEC; Superdex 200 10/300 GL; 250 μg LT (0.8 μg/μL) incubated with 4 mM ATP and 1 mM MgCl2; 25 mM Tris pH 8.0, 250 mM NaCl, 0.5 mM TCEP; percent hexamer from peak areas; monomer to hexamer

SV40 LT 131-627 cL557A (domain or fragment)
percent hexamer formed (ATP + Mg++) [1]: 99.9% | stoichiometry N [1]: 6

SV40 LT 131-627 cS430T (domain or fragment)
percent hexamer formed (UTP + Mg++) [2]: 84.6% | stoichiometry N [3]: 6

SV40 LT 131-627 cW393A (domain or fragment)
percent hexamer formed (ATP + Mg++) [4]: 97.9% | stoichiometry N [4]: 6

SV40 LT 131-627 tK419A (domain or fragment)
decrease in hexamer formation compared to WT (TTP + Mg++) [5]: 25.2% | percent hexamer formed (ATP + Mg++) [6]: 83.9% | stoichiometry N [6]: 6

SV40 Large Tumor Antigen (LT) 131-627, wild type (domain or fragment)
percent hexamer formed (UTP + Mg++) [7]: 69.4% | stoichiometry N [8]: 6

From article PMC5391581
